{"source": "the supplement of paper PMC10471632", "about": "“Protein engineering and iterative multimodule optimization for vitamin B6 production in Escherichia coli” (Nature Communications, 2023)", "parents": {"B1": {"name": "library; numbered along this chain (parent)", "chain": "MAELLLGVNIDHIATLRNARGTAYPDPVQAAFIAEQAGADGITVHLREDRRHITDRDVRILRQTLDTRMNLEMAVTEEMLAIAVETKPHFCCLVPEKRQEVTTEGGLDVAGQRDKMRDACKRLADAGIQVSLFIDADEEQIKAAAEVGAPFIEIHTGCYADAKTDAEQAQELARIAKAATFAASLGLKVNAGHGLTYHNVKAIAAIPEMHELNIGHAIIGRAVMTGLKDAVAEMKRLMLEARG"}}, "note": "± gives the standard deviation of the averaged measurements."}
{"variants_of": "B1", "assay": "pyridoxine titer in culture supernatant of strain expressing the PdxJ variant; higher = more PN produced (higher in vivo pathway activity of the PdxJ variant)", "conditions": "host strain: E. coli LL006; 48 h; temperature: 37 °C; FM1.4", "protocol": "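Rosetta-designed single to quadruple mutants of E. coli PdxJ (PNP synthase) were expressed from pRSFDuet-1 in the engineered chassis E. coli LL006 (MG1655 ΔpdxH::pdxST, pta::Eme_pdxP). Strains were grown in 24 deep-well plates in 2 mL FM1.4 glycerol medium at 37 °C and 800 rpm for 48 h. Extracellular pyridoxine (PN) titer was quantified by HPLC with fluorescence detection; two biological replicates, with the WT pdxJ strain (LL137, about 0.5 mg/L) as control.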", "units": {"pyridoxine titer": "mg/L"}}
{"variant": "I10L A23W V101L E104T", "pyridoxine titer": "1.8 ± 0.37"}
{"variant": "I10L A23Y V101L E104T", "pyridoxine titer": "0.246 ± 0.0055"}
{"variant": "I10L A217V", "pyridoxine titer": "0.48 ± 0.028"}
{"variant": "I10L D11C A23T", "pyridoxine titer": "0.22 ± 0.057"}
{"variant": "I10L E100I I218L", "pyridoxine titer": "0.24 ± 0.16"}
{"variant": "I10L E104T", "pyridoxine titer": "1.1 ± 0.48"}
{"variant": "I10L E104T G194Q I218L", "pyridoxine titer": "1.46 ± 0.011"}
{"variant": "I10L E104T I218L", "pyridoxine titer": "3.74 ± 0.56"}
{"variant": "I10L E104T I218L I219M", "pyridoxine titer": "0.32 ± 0.054"}
{"variant": "I10L E104T I218L I219W", "pyridoxine titer": "0.561 ± 0.22"}
{"variant": "I10L G21D T22V E104T", "pyridoxine titer": "2.44 ± 1.1"}
{"variant": "I10L G194C I218L", "pyridoxine titer": "1.45 ± 0.3"}
{"variant": "I10L G194C I218L I219L", "pyridoxine titer": "1.09 ± 0.14"}
{"variant": "I10L G194C T196L I218L", "pyridoxine titer": "0.562 ± 0.075"}
{"variant": "I10L G194C T196Y I218L", "pyridoxine titer": "0.378 ± 0.044"}
{"variant": "I10L H12L T103L", "pyridoxine titer": "0.18 ± 0.028"}
{"variant": "I10L H155I I218L", "pyridoxine titer": "0.28 ± 0.028"}
{"variant": "I10L I13V H155I L212I", "pyridoxine titer": "1.66 ± 0.076"}
{"variant": "I10L I13V L212I", "pyridoxine titer": "3.48 ± 1.7"}
{"variant": "I10L I13V T196V L212I", "pyridoxine titer": "0.575 ± 0.077"}
{"variant": "I10L I218L", "pyridoxine titer": "2.4 ± 0.35"}
{"variant": "I10L L212I", "pyridoxine titer": "1.64 ± 0.24"}
{"variant": "I10L T22V", "pyridoxine titer": "6.01 ± 0.81"}
{"variant": "I10L T22V A23T", "pyridoxine titer": "6.93 ± 0.49"}
{"variant": "I10L T22V A23T E100I", "pyridoxine titer": "1.17 ± 0.23"}
{"variant": "I10L T22V A23T G194Q", "pyridoxine titer": "0.91 ± 0.11"}
{"variant": "I10L T22V A23T I218M", "pyridoxine titer": "0.2811 ± 0.0013"}
{"variant": "I10L T22V A23T I219C", "pyridoxine titer": "1.49 ± 0.02"}
{"variant": "I10L T22V A23W E104T", "pyridoxine titer": "2.06 ± 0.39"}
{"variant": "I10L T22V E104T", "pyridoxine titer": "0.875 ± 0.11"}
{"variant": "I10L T22V E104T H155N", "pyridoxine titer": "2.5 ± 0.35"}
{"variant": "I10L T22V E104T I218M", "pyridoxine titer": "0.757 ± 0.11"}
{"variant": "I10L T22V E104T I219L", "pyridoxine titer": "2.93 ± 0.16"}
{"variant": "I10L T103L", "pyridoxine titer": "1.81 ± 0.042"}
{"variant": "I10L T103L E104T", "pyridoxine titer": "8.08 ± 0.54"}
{"variant": "I10L T103L I218L", "pyridoxine titer": "0.29 ± 0.057"}
{"variant": "I10L T103L L212I", "pyridoxine titer": "0.43 ± 0.071"}
{"variant": "I10L T196C", "pyridoxine titer": "0.61 ± 0.028"}
{"variant": "I10L V101L", "pyridoxine titer": "1.46 ± 0.37"}
{"variant": "I10L V101L E104T", "pyridoxine titer": "2.46 ± 2"}
{"variant": "I10L V101L E104T G194Q", "pyridoxine titer": "7.61 ± 0.4"}
{"variant": "I10L V101L E104T I218M", "pyridoxine titer": 0}
{"variant": "I10L V101L E104T I219C", "pyridoxine titer": "0.874 ± 0.68"}
{"variant": "I10L V101L E104T I219M", "pyridoxine titer": "0.553 ± 0.14"}
{"variant": "I10L V101L E104T I219W", "pyridoxine titer": "1.66 ± 0.26"}
{"variant": "I10L V101L E104T T196V", "pyridoxine titer": "6.81 ± 0.15"}
{"variant": "I10L V101L T103L E104T", "pyridoxine titer": "1.611 ± 0.0023"}
{"variant": "D11C A23T I218L", "pyridoxine titer": "0.39 ± 0.17"}
{"variant": "D11C T196C", "pyridoxine titer": "0.43 ± 0.028"}
{"variant": "D11N", "pyridoxine titer": "1.88 ± 0.18"}
{"variant": "H12M", "pyridoxine titer": "1.79 ± 0.07"}
{"variant": "H12M A14I T196C", "pyridoxine titer": "1.49 ± 0.28"}
{"variant": "H12M A23T", "pyridoxine titer": "0.58 ± 0.014"}
{"variant": "H12M T196C", "pyridoxine titer": "1.02 ± 0.014"}
{"variant": "I13V", "pyridoxine titer": "4.14 ± 0.062"}
{"variant": "I13V A217V", "pyridoxine titer": "1.81 ± 0.057"}
{"variant": "I13V E100I E104T T196C", "pyridoxine titer": "1.25 ± 0.031"}
{"variant": "I13V E100I G194K L212I", "pyridoxine titer": "0.324 ± 0.15"}
{"variant": "I13V E100I L212I", "pyridoxine titer": "6.04 ± 1.9"}
{"variant": "I13V E100W E104T L212I", "pyridoxine titer": "0.293 ± 0.15"}
{"variant": "I13V E104T G194Q T196C", "pyridoxine titer": "0.3065 ± 0.0012"}
{"variant": "I13V E104T L212I", "pyridoxine titer": "6.61 ± 2.6"}
{"variant": "I13V E104T T196C", "pyridoxine titer": "9.62 ± 0.33"}
{"variant": "I13V E104T T196C I219C", "pyridoxine titer": "0.274 ± 0.01"}
{"variant": "I13V E104T T196R L212I", "pyridoxine titer": "4.01 ± 0.7"}
{"variant": "I13V G21M E104T T196C", "pyridoxine titer": "1.98 ± 0.077"}
{"variant": "I13V H155I L212I", "pyridoxine titer": "0.81 ± 0.27"}
{"variant": "I13V H155R L212I", "pyridoxine titer": "0.22 ± 0.042"}
{"variant": "I13V I154L T196C", "pyridoxine titer": "0.52 ± 0.014"}
{"variant": "I13V L212I", "pyridoxine titer": "1.07 ± 0.3"}
{"variant": "I13V T15V L212I", "pyridoxine titer": "0.41 ± 0.13"}
{"variant": "I13V T103L E104T T196C", "pyridoxine titer": "0.233 ± 0.009"}
{"variant": "I13V T103L L212I", "pyridoxine titer": "0.43 ± 0.18"}
{"variant": "I13V T196C", "pyridoxine titer": "2.15 ± 0.18"}
{"variant": "I13V V44L E104T L212I", "pyridoxine titer": "0.354 ± 0.0062"}
{"variant": "I13V V44L E104T T196C", "pyridoxine titer": "0.824 ± 0.7"}
{"variant": "I13V V101L E104T T196C", "pyridoxine titer": "1.04 ± 0.83"}
{"variant": "A14I E104T T196C", "pyridoxine titer": "1.69 ± 0.75"}
{"variant": "T15C A19Q V44I", "pyridoxine titer": "0.48 ± 0.057"}
{"variant": "T15I", "pyridoxine titer": "0.373 ± 0.14"}
{"variant": "T15I A23T", "pyridoxine titer": "0.3 ± 0.014"}
{"variant": "T15I T196C", "pyridoxine titer": "1.08 ± 0.071"}
{"variant": "T15I V101L T196C", "pyridoxine titer": 0.44}
{"variant": "A19C A23T L212I", "pyridoxine titer": "3.68 ± 0.73"}
{"variant": "A19Q", "pyridoxine titer": "1.02 ± 0.045"}
{"variant": "A19Q E104T", "pyridoxine titer": "0.72 ± 0.028"}
{"variant": "A19Q G21M", "pyridoxine titer": "1.17 ± 0.38"}
{"variant": "A19Q G21M E100I", "pyridoxine titer": "0.47 ± 0.23"}
{"variant": "A19Q G21M T103L", "pyridoxine titer": "0.49 ± 0.028"}
{"variant": "A19Q V44I", "pyridoxine titer": "0.875 ± 0.47"}
{"variant": "A19R A23T E100I I219G", "pyridoxine titer": "0.244 ± 0.041"}
{"variant": "G21M", "pyridoxine titer": "0.428 ± 0.049"}
{"variant": "G21M G194C", "pyridoxine titer": "0.6 ± 0.014"}
